According to IntAct's records for PubMed 31515488:

B1: Syntenin-2 (Homo sapiens), Q9H190 (parent)
chain: MSSLYPSLEDLKVDQAIQAQVRASPKMPALPVQATAISPPPVLYPNLAELENYMGLSLSSQEVQESLLQIPEGDSTAVSGPGPGQMVAPVTGYSLGVRRAEIKPGVREIHLCKDERGKTGLRLRKVDQGLFVQLVQANTPASLVGLRFGDQLLQIDGRDCAGWSSHKAHQVVKKASGDKIVVVVRDRPFQRTVTMHKDSMGHVGFVIKKGKIVSLVKGSSAARNGLLTNHYVCEVDGQNVIGLKDKKIMEILATAGNVVTLTIIPSVIYEHMVKKLPPVLLHHTMDHSIPDA
partner: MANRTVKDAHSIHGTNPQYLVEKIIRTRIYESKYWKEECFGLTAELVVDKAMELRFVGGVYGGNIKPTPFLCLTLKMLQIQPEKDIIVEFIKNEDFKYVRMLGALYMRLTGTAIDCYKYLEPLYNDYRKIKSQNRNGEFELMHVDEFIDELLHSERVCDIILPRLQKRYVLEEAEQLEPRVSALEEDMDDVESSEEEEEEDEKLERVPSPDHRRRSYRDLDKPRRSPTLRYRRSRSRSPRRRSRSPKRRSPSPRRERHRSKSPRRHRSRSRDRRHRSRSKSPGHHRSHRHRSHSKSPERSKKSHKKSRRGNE
B2: Microtubule-associated tumor suppressor candidate 2 (Homo sapiens), Q5JR59-3 (parent)
chain: MGHCCCKPYNCLQCLDKTNESALVKEKELSIELANIRDEVAFHTAKCEKLQKEKEELERRFEDEVKRLGWQQQAELQELEERLQLQFEAEMARLQEEHGDQLLSIRCQHQEQVEDLTASHDAALLEMENNHTVAITILQDDHDHKVQELMSTHELEKKELEENFEKLRLSLQDQVDTLTFQSQSLRDRARRFEEALRKNTEEQLEIALAPYQHLEEDMKSLKQVLEMKNQQIHEQEKKILELEKLAEKNIILEEKIQVLQQQNEDLKARIDQNTVVTRQLSEENANLQEYVEKETQEKKRLSRTNEELLWKLQTGDPTSPIKLSPTSPVYRGSSSGPSSPARVSTTPR
partner: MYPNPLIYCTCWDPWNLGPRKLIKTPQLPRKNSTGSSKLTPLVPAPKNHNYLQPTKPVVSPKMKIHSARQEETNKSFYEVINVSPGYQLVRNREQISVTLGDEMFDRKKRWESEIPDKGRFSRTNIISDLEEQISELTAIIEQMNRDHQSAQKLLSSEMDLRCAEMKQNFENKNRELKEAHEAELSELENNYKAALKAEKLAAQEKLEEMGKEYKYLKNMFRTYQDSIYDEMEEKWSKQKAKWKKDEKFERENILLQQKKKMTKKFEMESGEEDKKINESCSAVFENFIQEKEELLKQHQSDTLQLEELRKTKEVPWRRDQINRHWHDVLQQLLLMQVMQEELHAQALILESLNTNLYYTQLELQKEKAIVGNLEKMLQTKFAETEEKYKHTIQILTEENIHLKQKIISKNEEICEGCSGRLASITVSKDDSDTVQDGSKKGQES
B3: Splicing factor 45 (Homo sapiens), Q96I25 (parent)
chain: MSLYDDLGVETSDSKTEGWSKNFKLLQSQLQVKKAALTQAKSQRTKQSTVLAPVIDLKRGGSSDDRQIVDTPPHVAAGLKDPVPSGFSAGEVLIPLADEYDPMFPNDYEKVVKRQREERQRQRELERQKEIEEREKRRKDRHEASGFARRPDPDSDEDEDYERERRKRSMGGAAIAPPTSLVEKDKELPRDFPYEEDSRPRSQSSKAAIPPPVYEEQDRPRSPTGPSNSFLANMGGTVAHKIMQKYGFREGQGLGKHEQGLSTALSVEKTSKRGGKIIVGDATEKDASKKSDSNPLTEILKCPTKVVLLRNMVGAGEVDEDLEVETKEECEKYGKVGKCVIFEIPGAPDDEAVRIFLEFERVESAIKAVVDLNGRYFGGRVVKACFYNLDKFRVLDLAEQV
partner: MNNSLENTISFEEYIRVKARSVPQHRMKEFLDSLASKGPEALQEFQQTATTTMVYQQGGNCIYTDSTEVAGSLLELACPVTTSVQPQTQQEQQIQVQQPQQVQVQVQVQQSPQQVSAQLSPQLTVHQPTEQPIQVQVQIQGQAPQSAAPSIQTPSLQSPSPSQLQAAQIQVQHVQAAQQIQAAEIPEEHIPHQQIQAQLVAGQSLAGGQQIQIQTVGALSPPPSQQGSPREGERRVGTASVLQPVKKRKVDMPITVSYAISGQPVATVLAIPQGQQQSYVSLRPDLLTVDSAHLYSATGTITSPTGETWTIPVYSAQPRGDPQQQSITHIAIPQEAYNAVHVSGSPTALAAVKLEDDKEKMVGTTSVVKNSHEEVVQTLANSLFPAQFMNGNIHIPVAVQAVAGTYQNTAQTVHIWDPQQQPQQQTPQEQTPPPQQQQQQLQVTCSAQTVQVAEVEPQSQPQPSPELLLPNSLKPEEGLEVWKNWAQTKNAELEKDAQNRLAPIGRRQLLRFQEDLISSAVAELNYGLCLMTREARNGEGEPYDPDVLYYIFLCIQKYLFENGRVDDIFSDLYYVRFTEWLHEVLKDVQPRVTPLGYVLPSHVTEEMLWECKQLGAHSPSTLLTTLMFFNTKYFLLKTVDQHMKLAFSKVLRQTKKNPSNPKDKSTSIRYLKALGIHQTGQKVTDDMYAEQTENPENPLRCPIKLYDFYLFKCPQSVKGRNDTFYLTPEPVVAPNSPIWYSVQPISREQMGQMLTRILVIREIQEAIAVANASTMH
B4: Adenylate kinase 8 (Homo sapiens), Q96MA6 (parent)
chain: MDATIAPHRIPPEMPQYGEENHIFELMQNMLEQLLIHQPEDPIPFMIQHLHRDNDNVPRIVILGPPASGKTTIAMWLCKHLNSSLLTLENLILNEFSYTATEARRLYLQRKTVPSALLVQLIQERLAEEDCIKQGWILDGIPETREQALRIQTLGITPRHVIVLSAPDTVLIERNLGKRIDPQTGEIYHTTFDWPPESEIQNRLMVPEDISELETAQKLLEYHRNIVRVIPSYPKILKVISADQPCVDVFYQALTYVQSNHRTNAPFTPRVLLLGPVGSGKSLQAALLAQKYRLVNVCCGQLLKEAVADRTTFGELIQPFFEKEMAVPDSLLMKVLSQRLDQQDCIQKGWVLHGVPRDLDQAHLLNRLGYNPNRVFFLNVPFDSIMERLTLRRIDPVTGERYHLMYKPPPTMEIQARLLQNPKDAEEQVKLKMDLFYRNSADLEQLYGSAITLNGDQDPYTVFEYIESGIINPLPKKIP
B5: Progranulin (Homo sapiens), P28799 (parent)
chain: MWTLVSWVALTAGLVAGTRCPDGQFCPVACCLDPGGASYSCCRPLLDKWPTTLSRHLGGPCQVDAHCSAGHSCIFTVSGTSSCCPFPEAVACGDGHHCCPRGFHCSADGRSCFQRSGNNSVGAIQCPDSQFECPDFSTCCVMVDGSWGCCPMPQASCCEDRVHCCPHGAFCDLVHTRCITPTGTHPLAKKLPAQRTNRAVALSSSVMCPDARSRCPDGSTCCELPSGKYGCCPMPNATCCSDHLHCCPQDTVCDLIQSKCLSKENATTDLLTKLPAHTVGDVKCDMEVSCPDGYTCCRLQSGAWGCCPFTQAVCCEDHIHCCPAGFTCDTQKGTCEQGPHQVPWMEKAPAHLSLPDPQALKRDVPCDNVSSCPSSDTCCQLTSGEWGCCPIPEAVCCSDHQHCCPQGYTCVAEGQCQRGSEIVAGLEKMPARRASLSHPRDIGCDQHTSCPVGQTCCPSLGGSWACCQLPHAVCCEDRQHCCPAGYTCNVKARSCEKEVVSAQPATFLARSPHVGVKDVECGEGHFCHDNQTCCRDNRQGWACCPYRQGVCCADRRHCCPAGFRCAARGTKCLRREAPRWDAPLRDPALRQLL
partner: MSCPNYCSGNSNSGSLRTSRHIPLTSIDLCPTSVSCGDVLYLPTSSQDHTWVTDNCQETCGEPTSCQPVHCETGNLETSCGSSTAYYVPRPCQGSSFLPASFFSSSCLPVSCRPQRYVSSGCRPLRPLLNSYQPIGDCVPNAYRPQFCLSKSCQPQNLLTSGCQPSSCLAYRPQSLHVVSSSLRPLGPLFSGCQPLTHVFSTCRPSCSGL
B6: Maspardin (Homo sapiens), Q9NZD8 (parent)
chain: MGEIKVSPDYNWFRGTVPLKKIIVDDDDSKIWSLYDAGPRSIRCPLIFLPPVSGTADVFFRQILALTGWGYRVIALQYPVYWDHLEFCDGFRKLLDHLQLDKVHLFGASLGGFLAQKFAEYTHKSPRVHSLILCNSFSDTSIFNQTWTANSFWLMPAFMLKKIVLGNFSSGPVDPMMADAIDFMVDRLESLGQSELASRLTLNCQNSYVEPHKIRDIPVTIMDVFDQSALSTEAKEEMYKLYPNARRAHLKTGGNFPYLCRSAEVNLYVQIHLLQFHGTKYAAIDPSMVSAEELEVQKGSLGISQEEQ
partner: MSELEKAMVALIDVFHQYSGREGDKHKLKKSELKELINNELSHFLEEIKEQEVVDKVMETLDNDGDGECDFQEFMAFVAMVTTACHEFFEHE
B7: Sperm surface protein Sp17 (Homo sapiens), Q15506 (parent)
chain: MSIPFSNTHYRIPQGFGNLLEGLTREILREQPDNIPAFAAAYFESLLEKREKTNFDPAEWGSKVEDRFYNNHAFEEQEPPEKSDPKQEESQISGKEEETSVTILDSSEEDKEKEEVAAVKIQAAFRGHIAREEAKKMKTNSLQNEEKEENK

Variants of: B1
Conditions: with pr38a_human PRPF38A

| Variant | effect of a mutation on the interaction |
| --- | --- |
| G242R | disrupting interaction strength |

Variants of: B2
Conditions: with facc1_human FLACC1, Q96Q35

| Variant | effect of a mutation on the interaction |
| --- | --- |
| A89V | with no effect |

Variants of: B3
Conditions: with qric1_human QRICH1, Q2TAL8

| Variant | effect of a mutation on the interaction |
| --- | --- |
| T224I | with no effect |

Variants of: B4
Conditions: with mcm7_human MCM7, P33993
Sequence of mcm7_human MCM7, P33993 (P33993 whole entry): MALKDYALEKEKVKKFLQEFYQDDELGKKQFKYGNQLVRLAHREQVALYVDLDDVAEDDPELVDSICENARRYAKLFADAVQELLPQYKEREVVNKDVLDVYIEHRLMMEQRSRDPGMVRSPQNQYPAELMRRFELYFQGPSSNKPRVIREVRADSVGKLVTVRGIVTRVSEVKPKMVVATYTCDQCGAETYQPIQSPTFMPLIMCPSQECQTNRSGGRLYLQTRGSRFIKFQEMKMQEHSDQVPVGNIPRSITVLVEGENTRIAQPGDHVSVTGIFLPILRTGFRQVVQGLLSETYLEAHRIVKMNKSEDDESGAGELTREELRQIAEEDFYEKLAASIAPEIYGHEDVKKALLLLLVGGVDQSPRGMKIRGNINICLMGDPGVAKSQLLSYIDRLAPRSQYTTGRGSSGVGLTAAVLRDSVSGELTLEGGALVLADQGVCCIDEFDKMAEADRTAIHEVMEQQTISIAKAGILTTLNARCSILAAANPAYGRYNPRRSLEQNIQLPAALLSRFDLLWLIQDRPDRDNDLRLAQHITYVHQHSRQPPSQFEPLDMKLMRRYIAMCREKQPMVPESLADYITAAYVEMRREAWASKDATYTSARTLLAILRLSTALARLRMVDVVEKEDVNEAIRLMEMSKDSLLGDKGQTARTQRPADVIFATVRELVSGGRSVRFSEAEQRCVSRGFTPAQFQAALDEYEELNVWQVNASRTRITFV

| Variant | effect of a mutation on the interaction |
| --- | --- |
| R339C | disrupting interaction strength |
| T169K | with no effect |
| V227I | with no effect |

Variants of: B5
Conditions: with kr261_human KRTAP26-1, Q6PEX3

| Variant | effect of a mutation on the interaction |
| --- | --- |
| R433W | with no effect |
| D536E | with no effect |
| G515A | with no effect |

Variants of: B6
Conditions: with S100B

| Variant | effect of a mutation on the interaction |
| --- | --- |
| H272D | disrupting interaction strength |
| A180T | disrupting interaction strength |

Variants of: B7
Conditions: with aka7g_human AKAP7, Q9P0M2
Sequence of aka7g_human AKAP7, Q9P0M2 (Q9P0M2 whole entry): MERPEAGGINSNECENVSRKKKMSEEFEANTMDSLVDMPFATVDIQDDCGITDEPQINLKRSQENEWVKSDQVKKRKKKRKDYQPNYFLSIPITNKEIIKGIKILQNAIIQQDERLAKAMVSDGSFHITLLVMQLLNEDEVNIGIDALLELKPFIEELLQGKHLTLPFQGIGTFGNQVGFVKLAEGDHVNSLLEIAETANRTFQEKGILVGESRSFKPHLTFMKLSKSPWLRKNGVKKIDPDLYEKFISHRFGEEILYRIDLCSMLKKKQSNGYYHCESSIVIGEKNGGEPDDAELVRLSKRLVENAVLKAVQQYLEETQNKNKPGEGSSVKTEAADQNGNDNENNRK

| Variant | effect of a mutation on the interaction |
| --- | --- |
| R126Q | disrupting interaction strength |
